In patent US20090275130A1 one finds fold-increase over control of cell proliferation of EML cells (total DNA, 5 days), 10 nM SCF and fold-increase over control of cell proliferation of EML cells (total DNA, 5 days), 50 nM SCF data, which are given here for one substance.

The target in the assay is receptors for SCF (kit) on EML clone 1 cells (UniProt P05532). In words: cell-based or functional assay.
Chain of UniProt P05532 (P05532 25-979 limits assumed): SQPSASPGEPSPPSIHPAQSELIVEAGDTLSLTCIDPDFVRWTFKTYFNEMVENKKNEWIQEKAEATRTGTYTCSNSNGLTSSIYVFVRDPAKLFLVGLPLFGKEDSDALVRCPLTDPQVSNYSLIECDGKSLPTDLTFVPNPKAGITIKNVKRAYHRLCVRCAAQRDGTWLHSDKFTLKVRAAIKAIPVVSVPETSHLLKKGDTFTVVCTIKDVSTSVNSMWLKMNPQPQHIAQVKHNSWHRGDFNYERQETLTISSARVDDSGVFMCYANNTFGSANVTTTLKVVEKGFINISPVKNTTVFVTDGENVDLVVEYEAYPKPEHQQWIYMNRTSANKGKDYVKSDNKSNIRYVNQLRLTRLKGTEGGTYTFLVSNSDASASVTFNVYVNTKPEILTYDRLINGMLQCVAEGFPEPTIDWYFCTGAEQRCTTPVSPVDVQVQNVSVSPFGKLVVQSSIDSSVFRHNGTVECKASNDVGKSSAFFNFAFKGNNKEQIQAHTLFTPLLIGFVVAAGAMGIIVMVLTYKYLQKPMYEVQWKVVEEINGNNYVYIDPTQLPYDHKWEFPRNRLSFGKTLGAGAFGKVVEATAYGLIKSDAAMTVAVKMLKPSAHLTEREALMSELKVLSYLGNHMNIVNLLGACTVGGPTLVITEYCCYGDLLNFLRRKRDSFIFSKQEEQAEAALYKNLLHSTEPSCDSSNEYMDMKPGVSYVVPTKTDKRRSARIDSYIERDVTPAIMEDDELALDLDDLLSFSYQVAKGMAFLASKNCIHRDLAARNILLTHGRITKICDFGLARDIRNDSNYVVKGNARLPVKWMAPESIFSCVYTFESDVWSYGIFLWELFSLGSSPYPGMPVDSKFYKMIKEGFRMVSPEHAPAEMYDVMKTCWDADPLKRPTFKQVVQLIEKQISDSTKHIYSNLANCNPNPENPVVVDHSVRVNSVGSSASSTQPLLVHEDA

Regarding Stem Cell Factor (SCF) (ligand), the fold-increase over control of cell proliferation of EML cells (total DNA, 5 days), 10 nM SCF worked out at 1.25 fold and the fold-increase over control of cell proliferation of EML cells (total DNA, 5 days), 50 nM SCF was determined as 2.4 fold.
